Test results reported in paper PMC12509985, “Phosphoglycerate dehydrogenase interacts with and inhibits the protein kinase TAK1 to mitigate septic shock” (The Journal of Biological Chemistry, 2025).
Values joined by “and” are separate entries in the source; they are usually repeats but may differ in a detail not shown here. Identical values can stand only once.

Columns and labels:
[1] = biological target: the molecule itself; experiment: cross-linking; lysate of PHGDH-KO PMs transfected with PHGDH or PHGDH (V425M) for 48 h; 0.25 mM cross-linker (DSS in the legend, dimethyl suberimidate in the methods), room temperature 10 min; Western blot
[2] = biological target: the molecule itself; experiment: cross-linking; lysate of WT PMs (native lysis buffer), untreated or pretreated with 15 μM CBR-5884 for 6 h; 0.25 mM cross-linker (DSS in the legend, dimethyl suberimidate in the methods), room temperature 10 min; Western blot of PHGDH

B1: PHGDH-Flag, expressed in PHGDH-KO peritoneal macrophages (enzyme, UniProt Q61753 1-533, looked up)
chain: MAFANLRKVLISDSLDPCCRKILQDGGLQVVEKQNLSKEELIAELQDCEGLIVRSATKVTADVINAAEKLQVVGRAGTGVDNVDLEAATRKGILVMNTPNGNSLSAAELTCGMIMCLARQIPQATASMKDGKWDRKKFMGTELNGKTLGILGLGRIGREVATRMQSFGMKTVGYDPIISPEVAASFGVQQLPLEEIWPLCDFITVHTPLLPSTTGLLNDSTFAQCKKGVRVVNCARGGIVDEGALLRALQSGQCAGAALDVFTEEPPRDRALVDHENVISCPHLGASTKEAQSRCGEEIAVQFVDMVKGKSLTGVVNAQALTSAFSPHTKPWIGLAEAMGTLMHAWAGSPKGTIQVVTQGTSLKNAGTCLSPAVIVGLLREASKQADVNLVNAKLLVKEAGLNVTTSHNPGVPGEQGSGECLLTVALAGAPYQAVGLVQGTTPMLQMLNGAVFRPEVPLRRGQPLLVFRAQPSDPGMLPTMIGLLAEAGVQLLSYQTSMVSDGEPWHVMGLSSLLPSLETWKQHVLEAFQFCF
notes: phosphoglycerate dehydrogenase (PHGDH); also called WT PHGDH; PHGDH-HA (methods); source: PHGDH-KO mouse peritoneal macrophages, transfected 48 h, in lysate
- stoichiometry N [1]: 4

B2: PHGDH, endogenous in mouse peritoneal macrophages (enzyme, UniProt Q61753 1-533, looked up)
chain: MAFANLRKVLISDSLDPCCRKILQDGGLQVVEKQNLSKEELIAELQDCEGLIVRSATKVTADVINAAEKLQVVGRAGTGVDNVDLEAATRKGILVMNTPNGNSLSAAELTCGMIMCLARQIPQATASMKDGKWDRKKFMGTELNGKTLGILGLGRIGREVATRMQSFGMKTVGYDPIISPEVAASFGVQQLPLEEIWPLCDFITVHTPLLPSTTGLLNDSTFAQCKKGVRVVNCARGGIVDEGALLRALQSGQCAGAALDVFTEEPPRDRALVDHENVISCPHLGASTKEAQSRCGEEIAVQFVDMVKGKSLTGVVNAQALTSAFSPHTKPWIGLAEAMGTLMHAWAGSPKGTIQVVTQGTSLKNAGTCLSPAVIVGLLREASKQADVNLVNAKLLVKEAGLNVTTSHNPGVPGEQGSGECLLTVALAGAPYQAVGLVQGTTPMLQMLNGAVFRPEVPLRRGQPLLVFRAQPSDPGMLPTMIGLLAEAGVQLLSYQTSMVSDGEPWHVMGLSSLLPSLETWKQHVLEAFQFCF
notes: phosphoglycerate dehydrogenase (PHGDH), endogenous in mouse peritoneal macrophages; Seen as tetramers and dimers after cross-linking of the lysate; also called endogenous PHGDH; source: endogenous, mouse peritoneal macrophage (PM) extract
- stoichiometry N [2]: 4 and 2

B3: PHGDH (V425M)-Flag, expressed in PHGDH-KO peritoneal macrophages (enzyme, UniProt Q61753 1-533, looked up)
chain: MAFANLRKVLISDSLDPCCRKILQDGGLQVVEKQNLSKEELIAELQDCEGLIVRSATKVTADVINAAEKLQVVGRAGTGVDNVDLEAATRKGILVMNTPNGNSLSAAELTCGMIMCLARQIPQATASMKDGKWDRKKFMGTELNGKTLGILGLGRIGREVATRMQSFGMKTVGYDPIISPEVAASFGVQQLPLEEIWPLCDFITVHTPLLPSTTGLLNDSTFAQCKKGVRVVNCARGGIVDEGALLRALQSGQCAGAALDVFTEEPPRDRALVDHENVISCPHLGASTKEAQSRCGEEIAVQFVDMVKGKSLTGVVNAQALTSAFSPHTKPWIGLAEAMGTLMHAWAGSPKGTIQVVTQGTSLKNAGTCLSPAVIVGLLREASKQADVNLVNAKLLVKEAGLNVTTSHNPGVPGEQGSGECLLTMALAGAPYQAVGLVQGTTPMLQMLNGAVFRPEVPLRRGQPLLVFRAQPSDPGMLPTMIGLLAEAGVQLLSYQTSMVSDGEPWHVMGLSSLLPSLETWKQHVLEAFQFCF
notes: phosphoglycerate dehydrogenase (PHGDH) with V425M made by site-directed mutagenesis; also called PHGDH (V425M)-HA (methods); source: PHGDH-KO mouse peritoneal macrophages, transfected 48 h, in lysate
- stoichiometry N [1]: 4 and 2
